Measured values taken from paper PMC3142112, “Rationally Designed Turn Promoting Mutation in the Amyloid-β Peptide Sequence Stabilizes Oligomers in Solution” (PLoS ONE, 2011).

Key:
Type in all cases: physicochemical
[1] = One-dimensional 1H NMR of peptide preparations (soluble versus aggregated state); conditions: 10% DMSO/PBS
Procedure: All peptides were used as supplied. Solution samples of the peptides were prepared as follows. Peptides were dissolved in 1,1,1,3,3,3-hexafluoro-2-propanol (HFIP) to concentrations of 1 mM HFIP, evaporated over nitrogen, and then dried in a Savant Speed Vac for 1 hr. The resultant peptide films were further kept under vacuum for a few hours to remove solvent traces. The films were stored at −80°C until use. Peptide films were dissolved to ∼0.5 mM concentrations in 10% d6-DMSO/10 mM PBS buffer to a final pH of 7.2. The solutions were incubated at 4°C for 12 hours, and then transferred to 37°C for 4 hours. The resulting solutions were centrifuged at 13000 rpm in a desktop centrifuge (Eppendorf) at 4°C for 30 min to remove any precipitated gel-form of the peptides. After centrifugation, the peptide concentrations were adjusted to 0.4 mM (concentrations were checked by UV visible spectroscopy), 0.05% sodium azide added as a bacteriostat and transferred to 5 mm NMR tubes. […]
NMR spectra were acquired at the Stanford Magnetic Resonance Laboratory on a Bruker Avance 500 MHz spectrometer running TopSpin v1.3 and equipped with a 5 mm H{CN} Z-axis gradient CryoProbe. […] The data was processed in TopSpin and analyzed with SPARKY [38].

[2] = Circular dichroism spectroscopy (conformation / fibril development)
Procedure: Conformational analyses of the mutant and Aβ42WT peptides were also carried out by Circular Dichroism (CD) spectroscopy.
The fibrils from the Aβ42WT preparation were centrifuged at 12000 rpm for 15 min to separate from any remaining monomer and the pellet was re-suspended in 10 mM phosphate pH 7.2 for CD measurement. CD measurements were performed using a 0.1 mm path length quartz cell in an Aviv 62A DS Circular Dichroism spectrometer (Aviv Associates, Lakewood, NJ) at 22°C.
(§1) The thioflavin T (ThT) binding studies of Aβ42WT and mutant peptides were carried out by incubating precipitated fibrils of the Aβ42WT or eluted oligomer preparation from the SEC column. The 25 µM amyloid fibrils (Aβ42WT) or oligomers of mutant were mixed with 5 µM of ThT dye concentration. After 2 h incubation, the fluorescence of the sample solutions were recorded by exciting at 440 nm and the intensity at 480 nm is monitored using Perkin-Elmer LC 55B spectrofluorimeter. The bandwidths of excitation/emission wavelengths were 5 nm/each.

[3] = Atomic force microscopy of peptide preparations; conditions: 25 µM peptide adsorbed 10 min onto silicon wafers, tapping mode
Procedure: High-resolution analysis of the peptide solution preparations were carried out using atomic force microscopy (AFM).
AFM topography images were acquired in the light tapping mode regime using a Multimode AFM (Veeco, USA). Resonant frequencies of the uncoated silicon tips (MikroMasch, USA) were roughly 150 kHz, with scan rates around 5–8 µm/s. Peptide samples were prepared using the protocol described above and diluted to 25 µM before application. Peptide solutions were adsorbed by incubating onto Pirahna cleaned silicon wafers with molecular smoothness (∼1 Å RMS roughness) as determined by AFM. After incubating for 10 min, the wafers are gently washed repeatededly with MilliQ water.

[4] = Thioflavin T fluorescence (aggregation / mature fibril formation); conditions: 25 µM fibrils (Aβ42WT) or SEC-eluted mutant oligomers, 5 µM ThT, 2 h incubation, excitation 440 nm, emission 480 nm, 25°C
Procedure: Thioflavin T fluorescence was used to assess aggregation and mature fibril formation as β-sheet content is directly correlated with fluorescence intensity of the dye.
as §1, with “Mean residue ellipticity (θ) was determined according to the equation θ = θObs • MRW/(10 • l • c); where θObs is observed ellipticity, MRW is mean residue weight of the peptide, c is peptide concentration (g/L), and l is optical path length (cm). The thioflavin” for “The thioflavin”

With “Aβ42WT: wild type form of Aβ42, recombinant purified, unlabeled and 15N-labeled, from rPeptide” the “species formed in preparation” value ([1]; 0.4 mM) was “formed fibrils”, the “state in solution by 1D 1H NMR (amide/aromatic region)” value ([1]; pH 7.2, 25°C, samples prepared in the same manner) was “very little observable signal” and the “conformation by CD spectrum” value ([2]; 0.1 mm path length cell, WT fibril pellet in 10 mM phosphate pH 7.2, mutant SEC-eluted) was “β-sheet rich, mature fibrils”. For the same substance, the “period over which aggregate develops into β-sheet rich, mature fibrils (CD)” value ([2]; PBS buffer, absorbance at ∼220 nm) was 12 h, the “mean globular structure height (AFM)” value [3] was 4.32 nm and the “Thioflavin T fluorescence of Aβ42WT compared to Aβ42Nle35p37” value [4] was “about four”.
